Read-outs that look alike come from different tables or passages of the source.

Assay [1] concerns the target T1, human IFNAR1, full length (IFNAR1-aa1-557) (human, UniProt P17181 28-557).
T1 sequence (looked up): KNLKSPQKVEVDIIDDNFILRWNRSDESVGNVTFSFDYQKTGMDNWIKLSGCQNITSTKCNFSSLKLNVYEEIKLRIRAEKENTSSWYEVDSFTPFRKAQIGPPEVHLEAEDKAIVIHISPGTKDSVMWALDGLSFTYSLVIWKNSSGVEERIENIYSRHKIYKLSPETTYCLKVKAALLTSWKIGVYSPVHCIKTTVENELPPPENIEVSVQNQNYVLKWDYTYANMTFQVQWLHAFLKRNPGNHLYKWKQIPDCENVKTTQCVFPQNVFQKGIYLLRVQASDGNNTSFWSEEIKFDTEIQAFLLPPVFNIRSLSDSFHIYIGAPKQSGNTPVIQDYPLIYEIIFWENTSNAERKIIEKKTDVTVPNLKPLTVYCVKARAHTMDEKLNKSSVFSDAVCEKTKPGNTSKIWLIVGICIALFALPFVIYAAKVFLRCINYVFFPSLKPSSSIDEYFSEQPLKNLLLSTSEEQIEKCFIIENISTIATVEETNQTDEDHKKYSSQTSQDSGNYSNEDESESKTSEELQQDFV
Kind of assay: cell-based or functional assay.

Assay [2] deals with T2, human/mouse chimeric IFNAR1 variant IFNAR1-m149-214 (human, with residues 149-214 replaced …, UniProt P17181 28-557).
T2 construct: expressed on 293T cells
T2 chain: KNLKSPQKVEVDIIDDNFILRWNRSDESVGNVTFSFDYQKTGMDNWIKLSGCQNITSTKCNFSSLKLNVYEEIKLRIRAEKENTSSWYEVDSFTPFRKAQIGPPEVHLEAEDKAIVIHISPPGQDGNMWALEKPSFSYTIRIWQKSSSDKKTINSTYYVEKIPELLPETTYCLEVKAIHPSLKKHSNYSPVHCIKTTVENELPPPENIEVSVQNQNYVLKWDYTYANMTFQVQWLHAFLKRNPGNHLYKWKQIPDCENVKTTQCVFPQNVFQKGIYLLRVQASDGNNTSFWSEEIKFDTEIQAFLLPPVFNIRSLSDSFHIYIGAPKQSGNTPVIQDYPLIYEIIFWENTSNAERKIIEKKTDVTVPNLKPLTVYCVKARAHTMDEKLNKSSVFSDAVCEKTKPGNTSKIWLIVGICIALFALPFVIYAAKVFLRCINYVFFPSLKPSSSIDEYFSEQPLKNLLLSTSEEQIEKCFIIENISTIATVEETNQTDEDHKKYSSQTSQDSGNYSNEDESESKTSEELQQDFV
Kind of assay: flow cytometry, 293T cells overexpressing IFNAR1-m149-214, MFI.
Description: (§1) After the incubation, the cells were centrifuged and re-suspended with 200 μL of FACS buffer, before next centrifugation and re-suspension.
(§2) PE-labeled goat anti-mouse IgG antibody (Biolegend) diluted in FACS buffer at 1:400 was added to each well. The cells were re-suspended and incubated at 4° C. for 30 min in the dark. After the incubation, the plate was centrifuged, the supernatant was discarded, and the cells were washed once as described above and re-suspended by adding 200 μL FACS buffer. Finally, the re-suspended cells were analyzed using a flow cytometer Guava (Millipore) for cellular GFP and PE signals.

Assay [3] concerns the target T2, human/mouse chimeric IFNAR1 variant …. The description is as above.
Description: as §1, §2

B1: anti-human IFNAR1 monoclonal antibody 10C5 (antibody, V domains shown)
VH: QVQLQQPGTELVKPGSPVKLSCKASGYTFTSFWLNWVQQRPGRGLEWIGKIDPSDSEIRYNQKFKDKATLTVDKSSNTAYIQLSSLTSEDSAVYYCARGGGIYYDYDGAMDYWGQGTSVTVSS
VL: DIQMTQSSSSFSVSLGDRLTITCKASEVIYNRLAWFQQKPGNAPRLLISGATSLETGVPSRFSGSGSRKDYTLSISSLQTEDVATYYCQQYWSSPFTFGSGTKLEIK
notes: Mouse monoclonal antibody from hybridoma CGMCC No. 16287
For the molecule B1, in assay [1], the “fold decrease in percentage of GFP positive reporter cells with serum from SLE patients” value is about 3 fold. For the same molecule, in assay [2], the binding result is recorded as “binds”.

B2: anti-human IFNAR1 monoclonal antibody 7G4 (antibody, V domains shown)
VH: QVQLQQPGAELVKPGAPVKLSCKASGYTFTSYWMNWVRQRPGRGLEWIGKIDPSDSETHFNQKFRDKATLTVDKSSTTAYIQLSSLTSEDSAVYYCARGGRISFDYDAALDYWGQGTSVTVSS
VL: DILMTQSSSSFSVSLGDRVTITCKSSEVIYNRLAWFQQKPGNAPRLLISGATTLESGFPSRFSGSGSGKDYTLSITSLQIEDVSTYYCQQYWNKPFTFGSGTKLEVK
notes: Mouse monoclonal antibody from hybridoma CGMCC No. 16286
In the case of B2, the “fold decrease in percentage of GFP positive reporter cells with serum from SLE patients” value in assay [1] is about 3 fold. In assay [3], the binding result is given as “binds”.

These data come from patent US20220144957A1 (IMMUNECENT BIOTECHNOLOGY, published 2022).
